Biological target: human factor H (human, UniProt P08603 19-1231)
Test: ELISA

human factor H, sequence (P08603 19-1231): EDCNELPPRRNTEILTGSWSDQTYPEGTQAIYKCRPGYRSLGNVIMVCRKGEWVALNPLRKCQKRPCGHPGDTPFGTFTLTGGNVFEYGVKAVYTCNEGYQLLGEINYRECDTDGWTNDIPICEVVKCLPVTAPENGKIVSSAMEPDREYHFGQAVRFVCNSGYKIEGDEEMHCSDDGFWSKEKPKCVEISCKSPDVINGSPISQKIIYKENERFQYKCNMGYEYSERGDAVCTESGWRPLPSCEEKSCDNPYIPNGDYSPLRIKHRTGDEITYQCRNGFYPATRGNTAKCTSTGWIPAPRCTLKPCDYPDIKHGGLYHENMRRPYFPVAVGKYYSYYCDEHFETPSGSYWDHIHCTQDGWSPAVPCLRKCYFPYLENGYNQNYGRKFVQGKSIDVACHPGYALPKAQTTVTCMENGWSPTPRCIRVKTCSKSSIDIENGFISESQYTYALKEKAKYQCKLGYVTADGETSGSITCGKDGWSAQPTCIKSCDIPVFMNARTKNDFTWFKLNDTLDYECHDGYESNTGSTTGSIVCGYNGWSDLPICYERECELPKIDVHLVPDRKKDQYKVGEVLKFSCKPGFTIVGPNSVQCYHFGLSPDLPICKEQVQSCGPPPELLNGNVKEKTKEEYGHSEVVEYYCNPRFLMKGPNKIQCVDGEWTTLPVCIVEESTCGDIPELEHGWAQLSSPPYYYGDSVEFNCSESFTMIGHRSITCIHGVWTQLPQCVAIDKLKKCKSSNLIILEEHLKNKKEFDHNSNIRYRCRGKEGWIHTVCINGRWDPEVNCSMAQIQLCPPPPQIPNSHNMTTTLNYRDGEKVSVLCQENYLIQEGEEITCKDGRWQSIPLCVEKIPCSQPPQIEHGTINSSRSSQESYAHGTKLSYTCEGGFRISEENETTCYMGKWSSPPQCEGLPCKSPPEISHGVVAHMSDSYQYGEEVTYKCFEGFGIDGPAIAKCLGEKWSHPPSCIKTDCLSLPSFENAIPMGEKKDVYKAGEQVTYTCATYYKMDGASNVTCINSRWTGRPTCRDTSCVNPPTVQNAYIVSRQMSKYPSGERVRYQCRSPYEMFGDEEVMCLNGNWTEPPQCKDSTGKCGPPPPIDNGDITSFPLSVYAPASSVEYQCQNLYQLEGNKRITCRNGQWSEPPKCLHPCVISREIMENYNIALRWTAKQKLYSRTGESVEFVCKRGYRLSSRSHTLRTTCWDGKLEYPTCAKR

B1: histidine-tagged CspZ (natural protein, B. burgdorferi)
chain: RLNQRNINELKIFVEKAKYYSIKLDAIYNECTGAYNDIMTYSEGTFSDQSKVNQAISIFKKDNKIVNKFKELEKIIEEYKPMFLSKLIDDFAIELDQAVDNDVSNARHVADSYKKLRKSVVLAYIESFDVISSKFVDSKFVEASKKFVNKAKEFVEENDLIALECIVKTIGDMVNDREINSRSRYNNFYKKEADFLGAAVELEGAYKAIKQTLL
  binding result: binds

From publication PMC11565809 (bioRxiv, 2024)
